The values that follow are results of earlier work, collected in PMC11139829.

Several values for one entry are separate records, joined by “and”; a condition that tells them apart may be missing. Equal values may be shown once. Read-outs that look alike come from different tables or passages of the source.

Series [1] concerns the target β-clamp (Escherichia coli) (UniProt P0A988). In words: SPR. On the technique in general: Surface plasmon resonance follows binding to a sensor surface in real time, without labels.
UniProt P0A988, sequence (P0A988 whole entry): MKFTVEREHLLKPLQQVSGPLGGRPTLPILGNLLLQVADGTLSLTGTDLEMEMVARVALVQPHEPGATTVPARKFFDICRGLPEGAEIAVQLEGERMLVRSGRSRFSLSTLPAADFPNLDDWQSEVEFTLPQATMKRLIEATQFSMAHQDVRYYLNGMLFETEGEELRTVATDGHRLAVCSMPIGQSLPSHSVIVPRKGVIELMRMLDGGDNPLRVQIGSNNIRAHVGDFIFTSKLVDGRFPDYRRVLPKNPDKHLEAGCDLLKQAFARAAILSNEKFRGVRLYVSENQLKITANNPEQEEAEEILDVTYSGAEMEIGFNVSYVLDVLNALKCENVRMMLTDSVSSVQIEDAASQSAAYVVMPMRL
Series [2] shares this target.
The target is the same in series [3]. Put plainly: Fluorescence.
Series [4] has the same target. In words: ITC.
Series [5] has the same target. Put plainly: SEC. In general terms: SEC sorts molecules by how far they enter the pores of the column.
Series [6] has the same target. Put plainly: ITC. The source holds these as a separate data set.
For series [7] the target is unchanged. Put plainly: ITC. The source holds these as a separate data set.

Pol III α, sequence (P10443 whole entry): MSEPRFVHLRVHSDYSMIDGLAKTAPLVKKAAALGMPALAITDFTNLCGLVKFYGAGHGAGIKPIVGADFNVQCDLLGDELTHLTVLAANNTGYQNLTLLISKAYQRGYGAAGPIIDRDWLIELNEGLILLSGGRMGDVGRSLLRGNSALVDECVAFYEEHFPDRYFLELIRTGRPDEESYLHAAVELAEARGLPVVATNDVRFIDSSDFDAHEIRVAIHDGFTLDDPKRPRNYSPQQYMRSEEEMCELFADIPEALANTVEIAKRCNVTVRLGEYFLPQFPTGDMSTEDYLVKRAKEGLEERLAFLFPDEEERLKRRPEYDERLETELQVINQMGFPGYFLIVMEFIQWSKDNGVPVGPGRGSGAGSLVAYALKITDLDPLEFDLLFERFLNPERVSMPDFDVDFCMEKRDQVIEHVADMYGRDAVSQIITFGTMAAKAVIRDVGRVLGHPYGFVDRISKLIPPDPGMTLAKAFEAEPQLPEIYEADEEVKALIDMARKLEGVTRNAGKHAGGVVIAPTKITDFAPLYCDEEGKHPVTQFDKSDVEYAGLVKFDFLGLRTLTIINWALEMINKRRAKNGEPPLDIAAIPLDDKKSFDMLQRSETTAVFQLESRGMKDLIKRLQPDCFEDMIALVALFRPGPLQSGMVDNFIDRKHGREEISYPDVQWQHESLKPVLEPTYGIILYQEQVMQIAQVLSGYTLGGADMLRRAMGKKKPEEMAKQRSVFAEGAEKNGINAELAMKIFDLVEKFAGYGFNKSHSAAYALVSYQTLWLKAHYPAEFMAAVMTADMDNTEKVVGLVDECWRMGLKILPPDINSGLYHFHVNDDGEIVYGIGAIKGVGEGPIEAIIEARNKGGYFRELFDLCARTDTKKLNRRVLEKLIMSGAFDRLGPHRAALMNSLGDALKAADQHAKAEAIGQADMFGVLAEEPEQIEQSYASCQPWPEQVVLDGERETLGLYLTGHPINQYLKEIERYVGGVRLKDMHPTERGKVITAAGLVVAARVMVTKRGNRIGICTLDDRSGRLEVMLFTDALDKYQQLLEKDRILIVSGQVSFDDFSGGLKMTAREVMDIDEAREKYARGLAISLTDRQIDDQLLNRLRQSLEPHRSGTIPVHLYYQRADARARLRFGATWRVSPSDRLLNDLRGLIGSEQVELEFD

On to Pol II (from UniProt P21189), for which the Kd (in general, the concentration at which binding is half-saturated) was 31.6 nM in series [1] and 120 nM in series [2].
With Pol II CBM peptide, the Kd is 3500 nM in series [3] and 1700 nM in series [4].
On to Pol III core (from UniProt P10443), for which the Kd in series [5] was less than 5 nM; in series [3] it was 51 nM and 50 nM.
Regarding Pol III α (from UniProt P10443), the Kd was 108 nM and 800 nM in series [1]; 1200 nM in series [5]; 110 nM in series [3]; 1500 nM in series [4].
Pol III α + ε (from UniProt P10443): the Kd in series [5] is 300 nM.
As to Pol III α C-terminal CBM peptide, the Kd in series [6] was 3060 nM; in series [3], 3200 nM and 3000 nM; in series [7], 3950 nM; in series [4], 1420 nM.
As for Pol III α internal CBM peptide, the Kd was 2700 nM in series [1] and greater than 15000 nM in series [4].
For the substance Pol III ε peptide, in series [1], the Kd was 210000 nM.
